Data as given in paper PMC4837482, “The complex binding mode of the peptide hormone H2 relaxin to its receptor RXFP1” (Nature Communications, 2016).
Where no end group is shown, it is not given here. The star is where a group is joined. DTPA = O=C(O)CN(CCN(CC(=O)O)CC(=O)O)CCN(CC(=O)O)CC(=O)*

What was measured:
Assay in all cases: europium-labelled ligand saturation binding on cells (time-resolved fluorescence); HEK293T cells transiently transfected with receptor, 96-well plates; increasing Eu-H2 relaxin (maximum 15 nM) with or without 1 μM unlabelled H2 relaxin, 1 h, room temperature; 20 mM HEPES pH 7.5, […] CaCl2, 50 mM NaCl, 0.01% NaN3, 1% BSA; one-site fit
[1] = molecular target: RXFP1 A55L, full length (human)
[2] = molecular target: RXFP1 A55S, full length (human)
[3] = molecular target: RXFP1 D42A, full length (human)
[4] = molecular target: T1, RXFP1 D51A, full length (human)
T1 sequence (Q9HBX9 1-757 with D51A, looked up): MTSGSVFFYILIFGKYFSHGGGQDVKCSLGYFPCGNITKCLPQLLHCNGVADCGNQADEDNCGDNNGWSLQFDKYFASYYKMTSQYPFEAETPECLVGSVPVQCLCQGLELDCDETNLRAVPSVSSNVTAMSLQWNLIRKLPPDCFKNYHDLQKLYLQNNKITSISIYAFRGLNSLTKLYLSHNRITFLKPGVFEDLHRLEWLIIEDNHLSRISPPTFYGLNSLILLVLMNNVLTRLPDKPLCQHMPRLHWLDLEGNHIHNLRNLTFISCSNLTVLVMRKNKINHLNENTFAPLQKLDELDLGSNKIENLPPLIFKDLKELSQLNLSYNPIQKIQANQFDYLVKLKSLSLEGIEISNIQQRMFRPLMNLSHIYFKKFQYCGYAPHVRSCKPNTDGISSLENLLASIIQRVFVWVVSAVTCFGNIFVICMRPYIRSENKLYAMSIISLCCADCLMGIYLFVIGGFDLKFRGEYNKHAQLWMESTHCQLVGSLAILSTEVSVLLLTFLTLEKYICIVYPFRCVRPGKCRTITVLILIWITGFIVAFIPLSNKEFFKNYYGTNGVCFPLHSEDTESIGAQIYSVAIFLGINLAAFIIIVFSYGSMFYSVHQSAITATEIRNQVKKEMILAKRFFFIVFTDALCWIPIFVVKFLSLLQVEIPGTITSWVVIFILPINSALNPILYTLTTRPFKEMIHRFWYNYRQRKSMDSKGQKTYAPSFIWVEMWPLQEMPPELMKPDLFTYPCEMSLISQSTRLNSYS

[5] = molecular target: RXFP1 F54A/Y58A, full length (human)
[6] = molecular target: RXFP1 G45A, full length (human)
[7] = molecular target: RXFP1 N43A, full length (human)
[8] = molecular target: RXFP1 N43A/N44A, full length (human)
[9] = molecular target: RXFP1 S47A/L48A, full length (human)
[10] = molecular target: RXFP1 T61A, full length (human)
[11] = molecular target: RXFP1 W46A, full length (human)
[12] = molecular target: RXFP1 Y58A, full length (human)

B1: Europium-labelled H2 relaxin (ligand, human)
chain 1: {DTPA}-QLYSALANKCCHVGCTKRSLARFC
chain 2: DSWMEEVIKLCGRELVRAQIAICGMSTWS
modifications: not fully specified; ends and bridges not checked; also: DTPA cage loaded with Eu^3+
notes: A chain of human gene-2 (H2) relaxin; numbers count on: the A chain; B chain of human gene-2 (H2) relaxin; numbers count on: the B chain; also called Eu-H2 relaxin; Eu-H2
- Kd [1]: 1.54 nM
- Kd [2]: 0.8 nM
- Kd [3]: 20.7 nM
- Kd [4]: 0.73 nM
- Kd [5]: 6.51 nM
- Kd [6]: 19.1 nM
- Kd [7]: 2.55 nM
- Kd [8]: 3.28 nM
- Kd [9]: 0.43 nM
- Kd [10]: 0.69 nM
- Kd [11]: 12.3 nM
- Kd [12]: 1.56 nM
